In the supplement of paper PMC11780869:

System: Bacillus subtilis
Test: cleaved RNA product abundance (RNA/gDNA barcode ratio) relative to median wild-type variant (ratio to wild type); higher = more accumulation of the downstream cleavage product
In short: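 Reporter mRNAs (truncated aprE or tetM) carrying barcoded, mutagenized RNase Y cleavage-site windows were made from oligos with a 9% error rate and integrated into the B. subtilis chromosome. Cultures grew in LB at 37°C from OD600 0.0003 to 0.3. Cleaved RNA was gel-selected, reverse transcribed and barcode-sequenced alongside genomic DNA barcodes, with UMI collapsing. Cleaved product abundance is the RNA:gDNA barcode ratio per variant, scaled to the median wild-type variant.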

[1] = experiment (reporter, strain, medium): exp 2b: truncated aprE reporter, strain BJT200, cleavage site: cggR-gapA (positions -7 to +36 mutated)
[2] = experiment (reporter, strain, medium): exp 4a: truncated aprE reporter, strain BJT201 with 2% xylose (RNase J1 expressed), cleavage site: cggR-gapA (positions -7 to +36 mutated)
[3] = experiment (reporter, strain, medium): exp 8a: truncated aprE reporter, strain BJT201 with 2% xylose (RNase J1 expressed), cleavage site: glnRA (positions -5 to +31 mutated)

ACAGACGAAGGAGCCGCAAAGAAGTTATTACGGGATGAATCATCCCTCAATATAAATATCTCTCACTTATTTAAA
cleaved RNA product abundance [1]: 0.316

ACAGACGAAGGAGCCGCAAAGAAGTTATTTAGGGATTAATAATCCCTCAATATAAATATCTCTCACTTATTTAAA
cleaved RNA product abundance [1]: 0.951 | cleaved RNA product abundance [2]: 1.08

ACAGACGAAGGAGCCGCAAAGAAGTTATTAAGGGAAGAATAATCCCTAAATATAAATATCTCTCACTTATTTAAA
cleaved RNA product abundance [2]: 0.326

CGACATGTCCCGCTTCTTTCATTAATCCGTTAGCAAATGTTTTGCTATATACATTCACCTTTTAAGAGGAGGAAT
cleaved RNA product abundance [3]: 1.09

ACAGACGAAGGAGCCGCAAAGAAATTATTAAGGGATGAATAATTCCTCAATATAAATATCTCTCACTTATTTAAA
cleaved RNA product abundance [1]: 0.457 | cleaved RNA product abundance [2]: 0.415

ACAGACGAAGGAGCCGCAAAGAAGTTATTAAGGGATGAATAATCCCTAAATATAAATATCTCTCACTTATTTAAA
cleaved RNA product abundance [1]: 0.622 | cleaved RNA product abundance [2]: 0.72 | cleaved RNA product abundance (experiment (reporter, strain, medium): exp 6: tetM reporter, strain 168, cleavage site: cggR-gapA (positions -7 to +36 mutated)): 0.772

CGACATGTCCCGCTTCTTTCATTAATCCGTTAACAACTGTTTTGATATATACATTTACCTTTTAAGAGGAGGAAT
cleaved RNA product abundance [3]: 0.235

CGACATGTCCCGCTTCTTTCATTAATCCGTTAGCAACTGTTTTGCTATATACACGTACCTTTTAAGAGGAGGAAT
cleaved RNA product abundance [3]: 0.835

ACAGACGAAGGAGCCGCAAAGAAGTTATTAAGGGATAAATAATCCCTAAATATAAATATCTCTCACTTATTTAAA
cleaved RNA product abundance [1]: 0.597 | cleaved RNA product abundance [2]: 0.734

CGACATGTCCCGCTTCTTTCATTAATCCGTAAGCAACTGTTTTGCTATATAAATTTACCTTTTAAGAGGAGGAAT
cleaved RNA product abundance [3]: 0.474

CGACATGTCCCGCTTCTTTCATTAAGCCGTTATCAACTGTTTTGCTATATTCATTTACCTTTTAAGAGGAGGAAT
cleaved RNA product abundance [3]: 0.0648

ACAGACGAAGGAGCCGCAAAGAAGTTATTAAGGGATGAATAAACCCTCACTATAAATATCTCTCACTTATTTAAA
cleaved RNA product abundance [2]: 0.173

ACAGACGAAGGAGCCGCAAAGAAGTTATGAAGGGATGAATAACCCCTCAATATAAATATCTCTCACTTATTTAAA
cleaved RNA product abundance [2]: 0.419

ACAGACGAAGGAGCCGCAAAGAAGTTATTAATGGATGAATAATCACTTAATATAAATATCTCTCACTTATTTAAA
cleaved RNA product abundance [2]: 0.194

CGACATGTCCCGCTTCTTTCATTAATCCGTTAGCAACTGTTTTCCTATATACATTTACATTTTAAGAGGAGGAAT
cleaved RNA product abundance [3]: 0.549

CGACATGTCCCGCTTCTTTCATTAATCCGTTAGCAACTGTTTTAATATATACATTTACCTTTTAAGAGGAGGAAT
cleaved RNA product abundance [3]: 0.589

ACAGACGAAGGAGCCGCAAAGAAGATATTAAGGGATGAATAATCCCTTAATATAAATATCTCTCACTTATTTAAA
cleaved RNA product abundance [2]: 0.192

ACAGACGAAGGAGCCGCAAAGAAGTTATTAAGGGATGAATAATCACTCGATATAAATATCTCTCACTTATTTAAA
cleaved RNA product abundance [2]: 0.0689

ACAGACGAAGGAGCCGCAAAGAAGTTATTATGGGAAGAATAATCCCTCAATATAAATATCTCTCACTTATTTAAA
cleaved RNA product abundance [1]: 0.159 | cleaved RNA product abundance [2]: 0.246

CGACATGTCCCGCTTCTTTCATTAATCCGTTAGCAACTGTTTTGCTATTTACATTTACCTTTTAAGAGGAGGAAT
cleaved RNA product abundance [3]: 0.16

ACAGACGAAGGAGCCGCAACGAAGTTATTAATGGATGAATAATCCCTCAATATAAATATCTCTCACTTATTTAAA
cleaved RNA product abundance [2]: 0.141

ACAGACGAAGGAGCCGCAAAGAAGTTATTAAGGGATAGATAATCCCTCAATATAAATATCTCTCACTTATTTAAA
cleaved RNA product abundance [2]: 0.791

ACAGACGAAGGAGCCGCAAACAAGTTATTAAGGGATGAATAATCCCTCAATATAAATAACTCTCACTTATTTAAA
cleaved RNA product abundance [1]: 0.576

CGACATGTCCCGCTTCTTTCATTAATACGTTAGCAACTGTTTTACTATATACATTTACCTTTTAAGAGGAGGAAT
cleaved RNA product abundance [3]: 0.547

ACAGACGAAGGAGCCGCAAAGAAGTTAATAAGGGATGTATAATCCCTCAATATAAATATCTCTCACTTATTTAAA
cleaved RNA product abundance [2]: 0.322

ACAGACGAAGGAGCCGCAAAAAAGTTATTAAGGGATGAATAATCCCTCAATATAAACATCTCTCACTTATTTAAA
cleaved RNA product abundance [2]: 0.766
